Measured values taken from paper PMC2195846.

Biological target: Full-length Daxx linked to the Gal4 DNA binding domain (pAS2-1-Daxx) (mouse) (UniProt O35613)
Experiment: two-hybrid

UniProt O35613, sequence (O35613 whole entry, the tested form may be a part): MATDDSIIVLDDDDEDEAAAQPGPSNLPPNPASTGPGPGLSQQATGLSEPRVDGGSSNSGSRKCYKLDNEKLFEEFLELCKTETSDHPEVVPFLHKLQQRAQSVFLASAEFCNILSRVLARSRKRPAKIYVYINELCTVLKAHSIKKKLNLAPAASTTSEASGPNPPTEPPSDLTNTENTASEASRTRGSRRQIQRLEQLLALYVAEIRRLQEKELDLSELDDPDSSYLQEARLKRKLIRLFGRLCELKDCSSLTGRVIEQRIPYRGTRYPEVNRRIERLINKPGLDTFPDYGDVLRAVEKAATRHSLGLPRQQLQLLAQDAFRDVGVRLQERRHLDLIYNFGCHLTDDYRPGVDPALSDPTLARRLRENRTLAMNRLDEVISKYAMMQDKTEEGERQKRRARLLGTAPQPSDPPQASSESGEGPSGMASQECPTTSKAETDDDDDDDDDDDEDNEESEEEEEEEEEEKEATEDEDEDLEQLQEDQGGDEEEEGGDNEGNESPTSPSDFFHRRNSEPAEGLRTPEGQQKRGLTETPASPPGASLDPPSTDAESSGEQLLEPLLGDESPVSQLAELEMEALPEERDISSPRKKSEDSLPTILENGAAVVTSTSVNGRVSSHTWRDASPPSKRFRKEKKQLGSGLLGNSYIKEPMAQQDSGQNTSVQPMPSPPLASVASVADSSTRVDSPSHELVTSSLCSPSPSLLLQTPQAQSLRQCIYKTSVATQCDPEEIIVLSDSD

Substance: Full-length PML linked to the Gal4 activation domain (pACT-2-PML) (from UniProt P29590 1-882) (natural protein)
- β-galactosidase expression, fold over the single-transformed colonies: 50 fold
